The results in this text go back to the supplement of paper PMC10567573.

The chains are these.
B1: GOLPH3 (parent)
chain: FAPLLDEQYDLATKRVRQLLDLDP
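Further: lentivirally expressed fusions sorted by FACS into six bins by GFP to DsRed ratio, PSI derived from sequencing read proportions per bin multiplied by bin number.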

The variants in the data set derive from B1. The experiment in a line: protein stability index of a GFP-peptide fusion (GPS, HEK-293T) (PSI 1-6); higher = more stable. The following applies: c terminus: a fixed tail appended.
As to FAPLWDEQYDLATKRVRQLLDLDP [L5W], the protein stability index stood at 2.07. The value for FAPLDDEQYDLATKRVRQLLDLDP [L5D] was 3.74; that for FAPLFDEQYDLATKRVRQLLDLDP [L5F] was 2.6; that for FAPLNDEQYDLATKRVRQLLDLDP [L5N] was 2.97.

Take FAPLSDEQYDLATKRVRQLLDLDP [L5S]: the protein stability index is 1.85. As for FAPLKDEQYDLATKRVRQLLDLDP [L5K], the protein stability index came to 2.39. As to FAPLLDEQYDLADKRVRQLLDLDP [T13D], the protein stability index worked out at 2.92. The value for FAPLLDEQYDLAHKRVRQLLDLDP [T13H] was 2.18. Next, FAPLLDESYDLATKRVRQLLDLDP [Q8S]: 2.24; FAPLLDEQYDLATKRVRELLDLDP [Q18E]: 2.06. The value for FAPLLDEQYDLATKRVRILLDLDP [Q18I] was 2.34; that for FAPLLDEQYDLATKRVRTLLDLDP [Q18T] was 2.21. For FAPLLDEQYDLATKRVRRLLDLDP [Q18R], the protein stability index came out at 1.44.

Turning to FAPLLDEQYDLATKRVRDLLDLDP [Q18D], the protein stability index was 2.43. In the case of FAPLLDEQYDLATKRVRYLLDLDP [Q18Y], the protein stability index was 1.74. Next, FAPLLDEQYDLATKRVRALLDLDP [Q18A]: 2.52; FAPLLSEQYDLATKRVRQLLDLDP [D6S]: 2.26; FAPLLCEQYDLATKRVRQLLDLDP [D6C]: 2.25. Next, FAPPLDEQYDLATKRVRQLLDLDP [L4P]: 2.35; FAPQLDEQYDLATKRVRQLLDLDP [L4Q]: 2.12; FAPWLDEQYDLATKRVRQLLDLDP [L4W]: 2.28.

With FAPTLDEQYDLATKRVRQLLDLDP [L4T], the protein stability index was determined as 1.72. The value for FAPELDEQYDLATKRVRQLLDLDP [L4E] was 2.79; that for FAPYLDEQYDLATKRVRQLLDLDP [L4Y] was 2.65. As for FAPLLDEQVDLATKRVRQLLDLDP [Y9V], the protein stability index turned out to be 1.24. The value for FAPLLDEQWDLATKRVRQLLDLDP [Y9W] was 2.06; that for FAPLLDEQMDLATKRVRQLLDLDP [Y9M] was 2.46; that for FAPLLDEQNDLATKRVRQLLDLDP [Y9N] was 2.57. Next, FAPLLDEQFDLATKRVRQLLDLDP [Y9F]: 2.75; FAPLLDEQLDLATKRVRQLLDLDP [Y9L]: 2.15. With FAPLLDAQYDLATKRVRQLLDLDP [E7A], the protein stability index came to 1.49. Take FAPLLDGQYDLATKRVRQLLDLDP [E7G]: the protein stability index is 1.86. For the variant FAPLLDCQYDLATKRVRQLLDLDP [E7C], the protein stability index came out at 1.98.

As for FAPLLDEQYDLATKPVRQLLDLDP [R15P], the protein stability index is 2.48. On to FAPLLDEQYDLATKHVRQLLDLDP [R15H], for which the protein stability index is 2.04. Regarding FAPLLDEQYDLATKFVRQLLDLDP [R15F], the protein stability index stood at 2.06. The value for FAPLLDEQYDLATKVVRQLLDLDP [R15V] was 2.35. Next, FAPLLDEQYDLATKAVRQLLDLDP [R15A]: 2.56; FAPLLDEQYDLQTKRVRQLLDLDP [A12Q]: 2.16. Next, FAPLLDEQYDLITKRVRQLLDLDP [A12I]: 1.43; FAPLLDEQYFLATKRVRQLLDLDP [D10F]: 2.69. Turning to FAPLLDEQYILATKRVRQLLDLDP [D10I], the protein stability index was determined as 1.88.

With FAPLLDEQYLLATKRVRQLLDLDP [D10L], the protein stability index amounted to 1.72.

For the variant FAPLLDEQYDLATKRVRQLLDLRP [D23R], the protein stability index turned out to be 2.72.

For FAPLLDEQYDLATKRVRQLLDLAP [D23A], the protein stability index amounted to 2.07. Next, FAPLLDEQYDLATKRVRQLLDLNP [D23N]: 2.85; FAPLLDEQYDLATKRVRQLLDLKP [D23K]: 1.78. With FAPLLDEQYDLATKRVRQLLDLWP [D23W], the protein stability index worked out at 3.32. Next, FAPLLDEQYDLATDRVRQLLDLDP [K14D]: 2.94; FAPLLDEQYDLATMRVRQLLDLDP [K14M]: 1.59; FAPLLDEQYDLATYRVRQLLDLDP [K14Y]: 1.97. As for FAPLLDEQYDKATKRVRQLLDLDP [L11K], the protein stability index is 2.56. The value for FAPLLDEQYDLATKRYRQLLDLDP [V16Y] was 2.58; that for FAPLLDEQYDLATKRARQLLDLDP [V16A] was 2.12; that for FASLLDEQYDLATKRVRQLLDLDP [P3S] was 2.34.

As for FAELLDEQYDLATKRVRQLLDLDP [P3E], the protein stability index was 3.18. Next, FAILLDEQYDLATKRVRQLLDLDP [P3I]: 1.68; FAPLLDEQYDLATKRVRQLLDIDP [L22I]: 2.45; FAPLLDEQYDLATKRVRQLLDDDP [L22D]: 2.75. Next, FAPLLDEQYDLATKRVRQLLDQDP [L22Q]: 2.5. Consider FAPLLDEQYDLATKRVRQLLDVDP [L22V], for which the protein stability index worked out at 2.2. For the variant FAPLLDEQYDLATKRVRQLLDPDP [L22P], the protein stability index came to 2.06. Next, FAPLLDEQYDLATKRVRQLLDTDP [L22T]: 2.21; FAPLLDEQYDLATKRVRQLFDLDP [L20F]: 1.83. The value for FAPLLDEQYDLATKRVRQLPDLDP [L20P] was 3.2; that for FAPLLDEQYDLATKRVRQLVDLDP [L20V] was 1.94.

Consider FAPLLDEQYDLATKRVRQLGDLDP [L20G], for which the protein stability index turned out to be 2.42.

As to FAPLLDEQYDLATKRVRQLNDLDP [L20N], the protein stability index is 2.25. FAPLLDEQYDLATKRVRQLHDLDP [L20H]: the protein stability index came to 1.98. In the case of KAPLLDEQYDLATKRVRQLLDLDP [F1K], the protein stability index is 3.61. The value for HAPLLDEQYDLATKRVRQLLDLDP [F1H] was 4. Turning to DAPLLDEQYDLATKRVRQLLDLDP [F1D], the protein stability index stood at 4.39. Regarding PAPLLDEQYDLATKRVRQLLDLDP [F1P], the protein stability index was determined as 4.59. The value for WAPLLDEQYDLATKRVRQLLDLDP [F1W] was 2.46. Next, IAPLLDEQYDLATKRVRQLLDLDP [F1I]: 3.11; FAPLLDEQYDLATKRVRQLLALDP [D21A]: 1.47; FAPLLDEQYDLATKRVRQLLFLDP [D21F]: 3.68. On to FAPLLDEQYDLATKRVRQLLILDP [D21I], for which the protein stability index turned out to be 1.45.

On to FQPLLDEQYDLATKRVRQLLDLDP [A2Q], for which the protein stability index was determined as 3.37. The value for FVPLLDEQYDLATKRVRQLLDLDP [A2V] was 2.11; that for FMPLLDEQYDLATKRVRQLLDLDP [A2M] was 2.03; that for FAPLLDEQYDLATKRVVQLLDLDP [R17V] was 2.03. With FAPLLDEQYDLATKRVNQLLDLDP [R17N], the protein stability index is 2.83. Regarding FAPLLDEQYDLATKRVHQLLDLDP [R17H], the protein stability index is 1.87.

In the case of FAPLLDEQYDLATKRVFQLLDLDP [R17F], the protein stability index came out at 1.93. Next, FAPLLDEQYDLATKRVTQLLDLDP [R17T]: 2.11. The value for FAPLLDEQYDLATKRVKQLLDLDP [R17K] was 1.8; that for FAPLLDEQYDLATKRVRQMLDLDP [L19M] was 1.78; that for FAPLLDEQYDLATKRVRQLLDLDT [P24T] was 2.3.

Take FAPLLDEQYDLATKRVRQLLDLDN [P24N]: the protein stability index was 2.46. Regarding FAPLLDEQYDLATKRVRQLLDLDY [P24Y], the protein stability index is 1.45. Take FAPLLDEQYDLATKRVRQLLDLDM [P24M]: the protein stability index is 2.

Consider FAPLLDEQYDLATKRVRQLLDLDH [P24H], for which the protein stability index worked out at 3.6. Take FAPLLDEQYDLATKRVRQLLDLDW [P24W]: the protein stability index amounted to 1.29.
